According to the Human Domainome abundance scans (Beltran et al. 2025):
± gives the uncertainty stated by the source.

B1: POU domain, class 4, transcription factor 3, residues 185 to 256; numbered along this chain, Q15319 (parent)
chain: RELEAFAERFKQRRIKLGVTQADVGAALANLKIPGVGSLSQSTICRFESLTLSHNNMIALKPVLQAWLEEAE

Variants of: B1
Experiment: abundance fitness (aPCA) (normalised: wild type 0, dead -1); higher = more abundant; growth selection in yeast, the domain comes from the species named
Conditions: Homo sapiens

Point of comparison: RELEAFAERFKQRRIKLGVTQADVGAALANLKIPGVGSLSQSTICRFESLTLSHNNMIALKPVLQKWLEEAE [A66K], abundance fitness 0.079 ± 0.12. Against it:
- RELEAFAERFKQRRIKLGVTQADVGAALANLKIPGVGSLSQSTICRFESLTLSHNNMIALKPVLQANLEEAE [W67N] — lower, -0.491 ± 0.16
- RELEAFAERFKQRRIKLGVTQADVGAALANLKIPGVGSLSQSTICRFESLTLSHNNMIALKPVLQAILEEAE [W67I] — lower, -0.752 ± 0.17
- RELEAFAERFKQRRIKLGVTQADVGAALANLKIPGVGSLSQSTICRFESLTLSHNNMIALKPVLQAFLEEAE [W67F] — within error, -0.06 ± 0.065
- RELEAFAERFKQRRIKLGVTQADVGAALANLKIPGVGSLSQSTICRFESLTLSHNNMIALKPVLQATLEEAE [W67T] — lower, -0.697 ± 0.11
- RELEAFAERFKQRRIKLGVTQADVGAALANLKIPGVGSLSQSTICRFESLTLSHNNMIALKPVLQACLEEAE [W67C] — lower, -0.496 ± 0.22
- RELEAFAERFKQRRIKLGVTQADVGAALANLKIPGVGSLSQSTICRFESLTLSHNNMIALKPVLQAQLEEAE [W67Q] — lower, -1.02 ± 0.24
- RELEAFAERFKQRRIKLGVTQADVGAALANLKIPGVGSLSQSTICRFESLTLSHNNMIALKPVLQASLEEAE [W67S] — lower, -0.684 ± 0.14
- RELEAFAERFKQRRIKLGVTQADVGAALANLKIPGVGSLSQSTICRFESLTLSHNNMIALKPVLQALLEEAE [W67L] — lower, -0.549 ± 0.052
- RELEAFAERFKQRRIKLGVTQADVGAALANLKIPGVGSLSQSTICRFESLTLSHNNMIALKPVLQAHLEEAE [W67H] — lower, -0.795 ± 0.11
- RELEAFAERFKQRRIKLGVTQADVGAALANLKIPGVGSLSQSTICRFESLTLSHNNMIALKPVLQAYLEEAE [W67Y] — within error, -0.09 ± 0.087
- RELEAFAERFKQRRIKLGVTQADVGAALANLKIPGVGSLSQSTICRFESLTLSHNNMIALKPVLQAPLEEAE [W67P] — lower, -0.618 ± 0.1
- RELEAFAERFKQRRIKLGVTQADVGAALANLKIPGVGSLSQSTICRFESLTLSHNNMIALKPVLQAWAEEAE [L68A] — lower, -0.287 ± 0.032
- RELEAFAERFKQRRIKLGVTQADVGAALANLKIPGVGSLSQSTICRFESLTLSHNNMIALKPVLQAWMEEAE [L68M] — within error, -0.056 ± 0.031
- RELEAFAERFKQRRIKLGVTQADVGAALANLKIPGVGSLSQSTICRFESLTLSHNNMIALKPVLQAWNEEAE [L68N] — lower, -0.912 ± 0.12
- RELEAFAERFKQRRIKLGVTQADVGAALANLKIPGVGSLSQSTICRFESLTLSHNNMIALKPVLQAWKEEAE [L68K] — lower, -0.901 ± 0.054
- RELEAFAERFKQRRIKLGVTQADVGAALANLKIPGVGSLSQSTICRFESLTLSHNNMIALKPVLQAWIEEAE [L68I] — within error, -0.056 ± 0.069
- RELEAFAERFKQRRIKLGVTQADVGAALANLKIPGVGSLSQSTICRFESLTLSHNNMIALKPVLQAWEEEAE [L68E] — lower, -0.503 ± 0.042
- RELEAFAERFKQRRIKLGVTQADVGAALANLKIPGVGSLSQSTICRFESLTLSHNNMIALKPVLQAWDEEAE [L68D] — lower, -0.872 ± 0.078
- RELEAFAERFKQRRIKLGVTQADVGAALANLKIPGVGSLSQSTICRFESLTLSHNNMIALKPVLQAWGEEAE [L68G] — lower, -0.685 ± 0.042
- RELEAFAERFKQRRIKLGVTQADVGAALANLKIPGVGSLSQSTICRFESLTLSHNNMIALKPVLQAWREEAE [L68R] — lower, -0.96 ± 0.068
- RELEAFAERFKQRRIKLGVTQADVGAALANLKIPGVGSLSQSTICRFESLTLSHNNMIALKPVLQAWPEEAE [L68P] — lower, -1.06 ± 0.14
- RELEAFAERFKQRRIKLGVTQADVGAALANLKIPGVGSLSQSTICRFESLTLSHNNMIALKPVLQAWCEEAE [L68C] — lower, -0.257 ± 0.072
- RELEAFAERFKQRRIKLGVTQADVGAALANLKIPGVGSLSQSTICRFESLTLSHNNMIALKPVLQAWQEEAE [L68Q] — lower, -0.497 ± 0.047
- RELEAFAERFKQRRIKLGVTQADVGAALANLKIPGVGSLSQSTICRFESLTLSHNNMIALKPVLQAWFEEAE [L68F] — lower, -0.585 ± 0.067
- RELEAFAERFKQRRIKLGVTQADVGAALANLKIPGVGSLSQSTICRFESLTLSHNNMIALKPVLQVWLEEAE [A66V] — lower, -0.429 ± 0.2
- RELEAFAERFKQRRIKLGVTQADVGAALANLKIPGVGSLSQSTICRFESLTLSHNNMIALKPVLQGWLEEAE [A66G] — within error, -0.013 ± 0.092
- RELEAFAERFKQRRIKLGVTQADVGAALANLKIPGVGSLSQSTICRFESLTLSHNNMIALKPVLQTWLEEAE [A66T] — within error, -0.074 ± 0.18
- RELEAFAERFKQRRIKLGVTQADVGAALANLKIPGVGSLSQSTICRFESLTLSHNNMIALKPVLQQWLEEAE [A66Q] — within error, 0.042 ± 0.2
- RELEAFAERFKQRRIKLGVTQADVGAALANLKIPGVGSLSQSTICRFESLTLSHNNMIALKPVLQEWLEEAE [A66E] — within error, 0.053 ± 0.09
- RELEAFAERFKQRRIKLGVTQADVGAALANLKIPGVGSLSQSTICRFESLTLSHNNMIALKPVLQLWLEEAE [A66L] — within error, -0.048 ± 0.33
- RELEAFAERFKQRRIKLGVTQADVGAALANLKIPGVGSLSQSTICRFESLTLSHNNMIALKPVLQRWLEEAE [A66R] — lower, -0.133 ± 0.08
- RELEAFAERFKQRRIKLGVTQADVGAALANLKIPGVGSLSQSTICRFESLTLSHNNMIALKPVLQPWLEEAE [A66P] — lower, -0.65 ± 0.14
- RELEAFAERFKQRRIKLGVTQADVGAALANLKIPGVGSLSQSTICRFESLTLSHNNMIALKPVLQDWLEEAE [A66D] — within error, -0.162 ± 0.24
- RELEAFAERFKQRRIKLGVTQADVGAALANLKIPGVGSLSQSTICRFESLTLSHNNMIALKPVLVAWLEEAE [Q65V] — within error, -0.085 ± 0.21
- RELEAFAERFKQRRIKLGVTQADVGAALANLKIPGVGSLSQSTICRFESLTLSHNNMIALKPVLLAWLEEAE [Q65L] — lower, -0.486 ± 0.17
- RELEAFAERFKQRRIKLGVTQADVGAALANLKIPGVGSLSQSTICRFESLTLSHNNMIALKPVLSAWLEEAE [Q65S] — within error, -0.127 ± 0.3
- RELEAFAERFKQRRIKLGVTQADVGAALANLKIPGVGSLSQSTICRFESLTLSHNNMIALKPVLRAWLEEAE [Q65R] — lower, -0.252 ± 0.16
